Assay results published in patent US20020039776.

Target: free histones (mixture of H1, H3, H2B, H2A and H4; Boehringer Mannheim)

Row | Protein | HMTase activity
1 | GST-SUV39H1(82-412) (protein) CVRILKQFHKDLERELLRRHHRSKTPRHLDPSLANYLVQKAKQRRALRRWEQELNAKRSHLGRITVENEVDLDGPPRAFVYINEYRVGEGITLNQVAVGCECQDCLWAPTGGCCPGASLHKFAYNDQGQVRLRAGLPIYECNSRCRCGYDCPNRVVQKGIRYDLCIFRTDDGRGWGVRTLEKIRKNSFVMEYVGEIITSEEAERRGQIYDRQGATYLFDLDYVEDVYTVDAAYYGNISHFVNHSCDPNLQVYNVFIDNLDERLPRIAFFATRTIRAGEELTFDYNMQVDPVDMESTRMDSNFGLAGLPGSPKKRVRIECKCGTESCRKYLF | The SU(VAR)3-9 family members assayed, SUV39H1, Suv39h2 and CLR4, displayed HMTase activity.
2 | GST-CLR4(127-490) (protein) KQSTALTTNDTSIILDDSLHTNSKKLGKTRNEVKEESQKRELVSNSIKEATSPKTSSILTKPRNPSKLDSYTHLSFYEKRELFRKKLREIEGPEVTLVNEVDDEPCPSLDFQFISQYRLTQGVIPPDPNFQSGCNCSSLGGCDLNNPSRCECLDDLDEPTHFAYDAQGRVRADTGAVIYECNSFCSCSMECPNRVVQRGRTLPLEIFKTKEKGWGVRSLRFAPAGTFITCYLGEVITSAEAAKRDKNYDDDGITYLFDLDMFDDASEYTVDAQNYGDVSRFFNHSCSPNIAIYSAVRNHGFRTIYDLAFFAIKDIQPLEELTFDYAGAKDFSPVQSQKSQQNRISKLRRQCKCGSANCRGWLFG | The SU(VAR)3-9 family members assayed, SUV39H1, Suv39h2 and CLR4, displayed HMTase activity.
